The source of these data is publication PMC6238537.

What all share (assay): solid-phase binding assay
The target in test [1] is recombinant integrin αvβ3, P06756;P05106. The following applies: read off a plot.
For test [2], the target named is recombinant integrin αvβ5, P06756;P18084. The following applies: read off a plot.
The target in test [3] is recombinant integrin α9β1, Q13797;P05556. The following applies: parent: est. 0.11; read off a plot.
recombinant integrin α9β1, Q13797;P05556, sequence (chain, as listed by the source, chain 1 of 2): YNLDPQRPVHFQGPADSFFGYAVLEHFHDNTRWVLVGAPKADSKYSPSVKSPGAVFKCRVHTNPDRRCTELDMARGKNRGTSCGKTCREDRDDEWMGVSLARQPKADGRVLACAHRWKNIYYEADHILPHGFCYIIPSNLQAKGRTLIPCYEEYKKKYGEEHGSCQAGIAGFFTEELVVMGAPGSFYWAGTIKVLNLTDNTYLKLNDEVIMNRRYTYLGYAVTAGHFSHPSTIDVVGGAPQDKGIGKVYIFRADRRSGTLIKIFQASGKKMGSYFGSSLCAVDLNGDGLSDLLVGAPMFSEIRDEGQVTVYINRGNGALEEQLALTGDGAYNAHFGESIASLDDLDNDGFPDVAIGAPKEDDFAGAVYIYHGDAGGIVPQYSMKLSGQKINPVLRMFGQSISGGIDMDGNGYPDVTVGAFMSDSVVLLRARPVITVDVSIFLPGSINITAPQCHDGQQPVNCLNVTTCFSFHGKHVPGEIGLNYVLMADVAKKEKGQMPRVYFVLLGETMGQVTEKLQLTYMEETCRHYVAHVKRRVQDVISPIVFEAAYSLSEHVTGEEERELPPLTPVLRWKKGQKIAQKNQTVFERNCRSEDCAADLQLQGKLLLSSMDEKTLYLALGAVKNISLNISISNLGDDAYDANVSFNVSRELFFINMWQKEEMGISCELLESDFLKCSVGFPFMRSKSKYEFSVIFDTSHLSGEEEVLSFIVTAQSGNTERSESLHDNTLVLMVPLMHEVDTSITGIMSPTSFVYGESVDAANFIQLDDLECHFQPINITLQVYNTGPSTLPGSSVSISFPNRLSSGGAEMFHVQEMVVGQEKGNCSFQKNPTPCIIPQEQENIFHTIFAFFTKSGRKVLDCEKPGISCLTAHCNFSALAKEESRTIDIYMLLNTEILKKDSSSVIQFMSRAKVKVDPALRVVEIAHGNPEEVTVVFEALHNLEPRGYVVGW
recombinant integrin α9β1, Q13797;P05556, sequence (chain, as listed by the source, chain 2 of 2): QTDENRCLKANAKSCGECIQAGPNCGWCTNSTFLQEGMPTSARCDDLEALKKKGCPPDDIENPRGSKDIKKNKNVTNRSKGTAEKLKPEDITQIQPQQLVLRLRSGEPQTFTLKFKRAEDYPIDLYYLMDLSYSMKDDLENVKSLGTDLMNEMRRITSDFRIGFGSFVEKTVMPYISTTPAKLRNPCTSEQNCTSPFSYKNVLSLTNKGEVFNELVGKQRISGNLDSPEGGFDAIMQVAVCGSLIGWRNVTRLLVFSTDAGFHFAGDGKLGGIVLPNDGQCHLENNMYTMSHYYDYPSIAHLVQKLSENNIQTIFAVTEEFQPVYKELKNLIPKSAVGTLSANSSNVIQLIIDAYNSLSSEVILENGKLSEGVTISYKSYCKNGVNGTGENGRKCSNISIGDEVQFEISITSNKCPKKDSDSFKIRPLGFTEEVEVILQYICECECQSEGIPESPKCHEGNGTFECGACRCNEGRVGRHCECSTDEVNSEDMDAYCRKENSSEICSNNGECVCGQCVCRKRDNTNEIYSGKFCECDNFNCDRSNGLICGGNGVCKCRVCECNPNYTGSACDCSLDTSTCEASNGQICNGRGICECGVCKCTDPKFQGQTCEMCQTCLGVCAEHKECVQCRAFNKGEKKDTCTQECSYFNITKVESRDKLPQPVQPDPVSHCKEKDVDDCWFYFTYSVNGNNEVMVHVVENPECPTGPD

As to “recombinant human laminin-111 (from UniProt P25391;P07942;P11047) γ1:EQ (γ1C-Glu to Gln)”, the response (absorbance at 490 nm) in test [1] (parent: est. 0.15) came to 0.17; in test [2] (parent: est. 0.26), 0.27.
“recombinant human laminin-511, O15230;P07942;P11047 γ1:EQ (γ1C-Glu to Gln)”: the values for the response (absorbance at 490 nm) in test [3], in test [1] (parent: est. 0.53) and in test [2] (parent: est. 1.4) were 0.13, 0.62 and 1.6, respectively.
